Laboratory results as given in patent US20210315969A1, “GLYCOPROTEINS HAVING LIPID MOBILIZING PROPERTIES AND THERAPEUTIC USES THEREOF” (Aston University, priority 2008, published 2021).

Experiments:
[1] = 21 day study of ZAG in ob/ob mice; format: in vivo
Protocol: FIG. 7A is a graphical diagram showing weight loss of the ob/ob mice during the 21 day study. ZAG was injected at days 1, 4, 5, 8, 13, 16, 18, and 19; PBS was injected at the same time points.
Animals—Mice—Homozygous obese (ob/ob) mice from the colony maintained at Aston University were used in the present study. The origin and characteristics of Aston ob/ob mice have been previously described. Male mice (20-21 weeks old, weight 90-100 g) were grouped into three per cage in an air conditioned room at 22 ±2° C. with a 12 h-light:12 h-dark cycle and fed a rat and mouse breeding diet (Special Diet Services, Witham, UK) and tap water ad libitum. They were administered ZAG (35 μg) in PBS (100 μl) b.d. by i.v. administration and body weight and food and water intake were monitored daily. Control mice received PBS alone. Body temperature was measured daily by the use of a rectal thermometer (RS Components, Northants, UK). All animal experiments were carried out in accordance with the U.K. Animals (Scientific Procedures) Act 1986.
Serum Metabolite Determinations—Non-esterified fatty acids (NEFA) were determined using a Wako-ASC-ACOD kit (Wako Chemical GmbH, Neuss, Germany). Triglycerides were determined using a Triglyceride kit (Sigma Chemical Co., Poole, United Kingdom) and 3-hydroxybutyrate by a quantitative enzymatic determination kit (Sigma). Glucose was measured using a glucose analyser (Beckman, Irvine, Calif.) and glycerol was determined enzymatically using the method of Wieland as described in “Methods of Enzymatic Analysis” (Ed, Bergmeyer, H. U.) Vol. 3, pp1404-1409, published by Academic Press, London (1974).

[2] = system: protein expression in adipocytes, BAT and gastrocnemius muscle; experiment: Western blot analysis of tissues of ob/ob mice treated with ZAG; format: in vivo
Protocol: Western Blot Analysis—Freshly excised gastrocnemius muscles were washed in PBS and lysed PHOSPHOSAFE™ Extraction Reagent for 5 min at room temperature followed by sonication at 4° C. The lysate was cleared by centrifugation at 18,000 g for 5 min at 4° C. and samples of cytosolic protein (5 μg) were resolved on 12% sodium dodecyl suflate-polyacrylamide gel electrophoresis at 180V for approximately 1 h. This was followed by transference to 0.45 μm nitrocellulose membranes, which were then blocked with 5% Marvel in Tris-buffered saline, pH 7.5, at 4° C. overnight. Both primary and secondary antibodies were used at a dilution of 1:1000 except anti-myosin (1:250). Incubation was for lh at room temperature, and development was by FCL. Blots were scanned by a densitometer to quantify differences.

[3] = Interval administration / pilot scheduling study of ZAG in ob/ob mice; format: in vivo
Protocol: While not wanting to be limited by theory, it may be that the subjects are receiving too much ZAG or that there is receptor desensitization as is seen with TNF. A pilot study was performed with 2 mice in each group to determine optimal scheduling of ZAG delivery.

[4] = Glucose and triolein oxidation, tissue glucose utilization and BAT oxygen uptake in mice treated with ZAG; format: in vivo
Text: FIG. 12E is a graphical diagraph showing tissue Rg in ob/ob mice administered ZAG, c, p<0.001 from PBS.
FIG. 24 is a graphical diagram showing the oxidation of D-[U-^14C glucose] to ^14CO2 in ob/ob mice.
FIG. 25 is a graphical diagram showing production of ^14CO^2 from [^14C carboxy] triolein in ob/ob mice.

[5] = Insulin tolerance test in ob/ob mice administered ZAG for 3 days; format: in vivo
Protocol: An insulin tolerance test was also carried out in ob/ob mice administered. ZAG for 3 days (FIG. 23). Animals were administered two doses of insulin (10 and 20 U/kg) by i.p. injection and blood glucose was measured over the next 60 min. […] The glucose disappearance curve for 20 U/kg +PBS was almost identical to 10 U/kg +ZAG, so at this dose level ZAG is reducing the requirement for insulin by 50%, but this can be overcome by giving more insulin.

[6] = system: proteasome 'chymotrypsin-like' activity, caspase-3 and caspase-8; experiment: Proteasome 'chymotrypsin-like' and caspase activity in gastrocnemius muscle; format: in vivo; details: ob/ob mice treated 5 days
Protocol: Gastrocnemius muscle was homogenised in 20 mM Tris, pH7.5, 2 mM ATP, 5 mM MgCl2 and 50 mM DTT at 4° C., sonicated and centrifuged at 18,000 g for 10 min at 4° C. to pellet insoluble material, and the resulting supernatant was used to measure ‘chymotrypsin-like’ enzyme activity in the presence or absence of the proteasome inhibitor lactacystin (10 μM). Only lactacystin suppressible activity was considered as true proteasome activity. The activity of caspase-3 was determined by the release of AMC from AcAsp.Gly.Val.Asp.AMC (SEQ ID NO: 3), and the activity of caspase-8 was determined by the release of 7-amino-4-trifluromethylcoumarin (AFC) from the specific substrate Z-Ile Glu Phe Thr Asp-AFC (SEQ ID NO: 4), using the supernatant from above (50 ug protein), and either the caspase-3 or −8 substrate (10 μM) for ih 37° C. in the presence or absence of the caspase-3 (AcAsp Glu Val Asp-CHO) (SEQ ID NO: 5) or caspase-8 (Ile Glu Phe Thr Asp-CHO) (SEQ ID NO: 6) inhibitors (100 μM). The increase in fluorescence due to […], while the increase in fluorescence due to AFC was measured with an excitation wavelength of 400 nm and an emission wavelength of 505 nm. The difference in values in the absence and presence of the caspase inhibitors was a measure of activity.

[7] = system: rat epididymal adipocytes; experiment: Lipolytic activity in rat adipocytes; format: cell-based; details: concentrations between 233 and 700 nM
Protocol: Lipolytic Activity in Rat Adipocytes—White adipocytes were prepared from finely minced epididymal adipose tissue of male Wistar rats (400 g) using collagenase digestion, as described (Beck S A, et al. Production of lipolytic and proteolytic factors by a murine tumor-producing cachexia in the host. Cancer Res 47:5919-5923, 1987), Lipolytic activity was determined by incubating 10^5-2×10^5 adipocytes for 2 h in 1 ml Krebs-Ringer bicarbonate buffer, pH 7.2, and the extent of lipolysis was determined by measuring the glycerol released (Wieland O. Glycerol U V method. Methods of Enzymatic Analysis, edited by Bergmeyer H U, Academic Press, London, pp 1404-1409, 1974). Spontaneous glycerol release was measured by incubating adipocytes alone. Lipolytic activity was expressed as μmol glycerol released/10^5 adipocytes/2 h.

B1: Zinc-α2-glycoprotein (protein, listed as Homo sapiens)
chain: QENQDGRYSLTYIYTGLSKHVEDVPAFQALGSLNDLQFFRYNSKDRKSQPMGLWRQVEGMEDWKEDSQLQKAREDMETLKDIVEYYNDSNGSHVLQGRFGCEIENNRSSGAFWKYYYDGKDYIEFNKEIPAWVPFDPAAQITKQKWEAEPVYVQRAKAYLEEECPATLRKYLKYSKNILDRQDPPSVVVTSHQAPGEKKKLKCLAYDFYPGKIDVHWTRAGQVQEPELRGDVLHNGNGTYQSWVVVAVPPQDTAPYSCHVQHSSLAQPLVVPWEAS
notes: recombinant human Zinc-α2-glycoprotein, lipid mobilizing factor, expressed in HEK293F cells
urinary glucose excretion ([1]; first 5 days and 21 day study): progressive decrease | peak body temperature ([1]; just before maximum weight loss): 38.1 °C | Start weight ([1]; ob/ob mice, 21 day study, before treatment, in g): 93.1 ± 1.9 | BAT ([1]; ob/ob mice, Day 21 (Table 3)): 0.41 ± 0.35 g | Gastrocnemius ([1]; ob/ob mice, Day 21 (Table 3)): 0.39 ± 0.12 g | Soleus ([1]; ob/ob mice, Day 21 (Table 3)): 0.18 ± 0.07 g | expression of HSL in epididymal adipocytes ([2]; 5 days ZAG): increased expression of HSL | expression of HSL in subcutaneous or visceral adipocytes ([2]; 5 days ZAG): no increase | expression of UCP1 and UCP3 in BAT and UCP3 in skeletal muscle ([2]; 5 days ZAG): increased the expression | expression of pERK ([2]; 5 days ZAG, ep, sc, vis adipose tissue): increase in expression of pERK only in ep adipose tissue | phospholipase A2 (PLA2) and p38 mitogen activated protein kinase ([2]; gastrocnemius muscle): attenuated | time ZAG expression was maintained in cultured ep adipocytes ([2]; no ZAG added to culture medium): 3 days | expression of HSL and ATGL in epididymal adipose tissue ([2]; ob/ob mice): increases the expression | actin levels ([2]; skeletal muscle): did not change | weight loss on long-term daily administration [3]: cessation of weight loss | weight loss with break of 3-4 days followed by re-infusion [3]: continued weight loss | glucose utilization/oxidation by brain, heart, BAT and gastrocnemius muscle [4]: increased glucose utilizationloxidation | production of 14CO2 from D-[U-14C] glucose and [14C carboxy] triolein [4]: increased production | insulin tolerance test, blood glucose response ([5]; insulin 10 U/kg i.p., vs PBS): increased sensitivity to insulin | insulin tolerance test, difference ZAG versus PBS ([5]; insulin 20 U/kg i.p.): difference disappeared | caspases-3 and -8 [6]: attenuated | glycerol release [7]: dose-related increase
